Data taken from patent publication US20240182593A1 (YUHAN, published 2024).

What was measured:
[1] = biological target: T1, human OX40 expressed on cells (human, UniProt P43489 29-277); assay: flow cytometry on activated human CD4+ T cells
T1 construct: whole, on cells
T1 sequence (looked up): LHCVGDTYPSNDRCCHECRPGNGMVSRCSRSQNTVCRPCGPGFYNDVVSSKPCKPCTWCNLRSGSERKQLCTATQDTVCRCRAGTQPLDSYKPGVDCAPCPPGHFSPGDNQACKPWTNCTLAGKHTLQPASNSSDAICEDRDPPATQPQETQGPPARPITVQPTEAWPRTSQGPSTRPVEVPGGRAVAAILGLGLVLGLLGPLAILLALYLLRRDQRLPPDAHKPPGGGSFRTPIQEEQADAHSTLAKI
Protocol: (§1) The activity of the OX40-binding antibody prepared in Example 1.3 to bind to activated human T cells was tested as follows.
(§2) To induce OX40 expression, cells were activated for several days prior to the binding assay. Briefly, human CD4⁺ T cells ([…] Technologies) were cultured in the presence of IL-2 (Roche Life Sciences, Indianapolis, IN) and phytohemaglutinin-leucoagglutinin (PHA-L; Roche Life Sciences, Indianapolis, IN) at a concentration of 10 μg/ml for 2 days to activate the human CD4⁺ T cells. The activated CD4⁺ T cells were incubated with OX40-binding antibody serially diluted 5-fold from 1 μM. The bound antibody was detected with a fluorescently labeled anti-human IgG polyclonal secondary antibody, and cells were stained with FITC mouse anti-human CD134 (OX40) antibody clone ACT35 (BD Pharmingen) to detect CD4⁺ T cells expressing OX40. Fluorescence intensity of staining was measured using a BD FACSCantoII flow cytometry analyzer. Mean fluorescence intensity (MFI) of OX40-binding antibody staining was calculated using FlowJo software.

[2] = biological target: T1, human OX40 expressed on cells; assay: flow cytometry on activated human CD4+ T cells, fitted MFI curve
Protocol: as §1, §2

[3] = biological target: T2, human OX40 protein (Sino Biological, Cat. 10481-H08H) (human, UniProt P43489 29-216); assay: ELISA, human OX40 protein coated at 0.1 ug/ml, antibody diluted 4-fold from 100 nM, HRP secondary antibody, O.D. 450 nm
T2 construct: Bought recombinant protein; also called CD134; TNFRSF4
T2 sequence (looked up): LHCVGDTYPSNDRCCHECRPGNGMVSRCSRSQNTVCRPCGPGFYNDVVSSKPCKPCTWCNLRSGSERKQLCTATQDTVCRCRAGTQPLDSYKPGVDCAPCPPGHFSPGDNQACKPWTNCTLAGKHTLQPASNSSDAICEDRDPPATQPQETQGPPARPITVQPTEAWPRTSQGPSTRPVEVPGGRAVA
Protocol: (§3) ELISA was performed to quantitatively analyze the antigen-binding activity of the OX40-binding antibody prepared in Example 1.3 to the antigen.
(§4) More specifically, the antigen human OX40 protein (Sino Biological, Cat. 10481-H08H) was added to a 96-well plate (Thermo Scientific, Cat. 469949) at a concentration of 0.1 μg/ml, and coated overnight at 4° C. Here, 200 μl of 3% BSA (Millipore, Cat. 820451) was placed in each well and blocked at room temperature for 2 hours. The OX40-binding antibody (Example 1.3) serially diluted 4-fold from 100 nM was added thereto and reacted at room temperature for 2 hours. After washing 4 times with 300 μl of PBS/Tween-20, HRP-bound secondary antibody (Abcam, Cat. Ab98624) was treated and reacted at room temperature for 1 hour. Then, it was washed 4 times with 300 μl of PBS/Tween-20. Following 100 μl of TMB was added thereto to develop color, 100 μl of 2 N H₂SO₄ was added to stop the reaction. The absorbance was measured at 450 nm using a microplate reader (Perkin Elmer, Victor X5).

[4] = biological target: T2, human OX40 protein (Sino Biological, …); assay: SPR (BIACORE T200), antibody captured on protein A chip, human OX40 as analyte, 1:1 model
Protocol: (§5) Quantitative analysis of antigen binding of the OX40-binding antibody prepared in Example 1.3 was performed using a BIACORE T200. The experimental conditions using surface plasmon resonance (SPR) were as follows: Protein A-immobilized CM5 chip (GE Healthcare) was used. 10 mM Glycine-HCl (pH 1.5) was used as the regeneration buffer, and HBS-EP (pH 7.4) was used as the running buffer, antibody dilution, and antigen dilution buffer. OX40-binding antibody was diluted with HBS-EP (pH 7.4), and human OX40 protein (Sino Biological, Cat. 10481-H08H) was serially diluted two-fold from 200 nM. Analysis was performed at all 11 concentrations (200, 100, 50, 25, 12.5, 6.25, 3.13, 1.56, 0.78, 0.39, 0 nM) including 0 nM. First, the OX40-binding antibody was captured on a chip immobilized with protein A (Thermo, Cat. 21184). In the association phase of human OX40 protein, the association time was set to 400-600 seconds and the flow rate was set to 30 μL/min. In the dissociation phase, the dissociation time was set to 400-2000 seconds and the flow rate was set to 30 μL/min. In the regeneration phase, the flow rate was set to 100 μL/min, and the flow time was set to 30 seconds. By using BIACORE Evaluation software, the data were analyzed and fitted in a 1:1 binding model.

[5] = biological target: T3, cynomolgus monkey OX40 (R&D, Cat. 10311-OX) (cynomolgus monkey); assay: ELISA, cynomolgus monkey OX40 coated at 0.5 ug/ml, serially diluted antibody, goat anti-human Fab secondary antibody, O.D. 450 nm
T3 construct: Bought protein; construct not described; also called Cynomolgus monkey OX40 antigen; Cyno OX40
Protocol: (§6) To determine the cross-species reactivity of anti-OX40 antibodies to mouse and cynomolgus (Cyno) monkey OX40, mouse OX40 (ACRO, Cat. OX0-M5259) and cynomolgus monkey OX40 (R&D, Cat. 10311-OX) antigens were coated on a 96-well plate at a concentration of 0.5 μg/ml, and the plate was incubated overnight at 4° C. After blocking using 3% BSA, serially diluted OX40 antibodies were treated and incubated for 1 hour at room temperature. Goat anti-human Fab (Jackson ImmunoResearch, Cat. 109-036-097) was diluted 1: 5000 and used as a secondary antibody for detection. Absorbance at 450 nm was read using a microplate reader (Molecular Device). To determine EC50 values for dose-dependent binding of OX40 binding antibodies in mice and cynomolgus monkeys, dose-response data were analyzed using a 4-parameter logistic model with GraphPad Prism.

[6] = biological target: T2, human OX40 protein (Sino Biological, …); assay: ELISA, human OX40 protein coated at 0.1 ug/ml, serially diluted antibody, HRP secondary antibody, O.D. 450 nm
Protocol: as §3, §4

[7] = biological target: T4, mouse OX40 (ACRO, Cat. OX0-M5259) (mouse, UniProt P47741 20-211); assay: ELISA, mouse OX40 coated at 0.5 ug/ml, serially diluted antibody, goat anti-human Fab secondary antibody, O.D. 450 nm
T4 construct: Bought protein; construct not described; also called mouse OX40 antigen
T4 sequence (looked up): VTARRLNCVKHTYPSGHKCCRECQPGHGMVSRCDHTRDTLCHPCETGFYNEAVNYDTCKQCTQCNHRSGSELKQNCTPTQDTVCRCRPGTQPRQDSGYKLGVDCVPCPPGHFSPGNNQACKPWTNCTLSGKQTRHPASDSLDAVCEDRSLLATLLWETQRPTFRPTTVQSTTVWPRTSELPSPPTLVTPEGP
Protocol: as §6

[8] = biological target: T2, human OX40 protein (Sino Biological, …); assay: SPR (BIACORE T200), same test as for the antibodies (capture on protein A chip, human OX40 as analyte), 1:1 model
Protocol: as §5

B1: O15 (antibody, V domains shown)
VH: EVQLLESGGGLVQPGGSLRLSCAASGFTFSSYSMSWVRQAPGKGLEWVSMISSGGGSTYYADSVKGRFTISRDNSKNTLYLQMNSLRAEDTAVYYCARHWRYFDYWGQGTLVTVSS
VL: QSVLTQPPSASGTPGQRVTISCSGSSSNIGNNYVSWYQQLPGTAPKLLIYADSKRPSGVPDRFSGSKSGTSASLAISGLRSEDEADYYCGAWDSSLSGYVFGGGTKLTVLG
- EC50 [1]: 2650 pM
- Bottom [2]: 7.36
- Top [2]: 102
- EC50 (read off the curve) [3]: ~200 pM

B2: O32 (antibody, V domains shown)
VH: EVQLLESGGGLVQPGGSLRLSCAASGFTFSSYSMSWVRQAPGKGLEWVSVISSGGGSTYYADSVKGRFTISRDNSKNTLYLQMNSLRAEDTAVYYCARHWRYFDYWGQGTLVTVSS
VL: QSVLTQPPSASGTPGQRVTISCSGSSSNIGNNYVSWYQQLPGTAPKLLIYADSKRPSGVPDRFSGSKSGTSASLAISGLRSEDEADYYCGAWDSSLSGYVFGGGTKLTVLG
- EC50 [1]: 102 pM
- Bottom [2]: 7.69
- Top [2]: 102
- Kd [4]: 2050 pM
- koff [4]: 4.13e-05 s⁻¹
- EC50 (read off the curve) [3]: ~1 pM
- EC50 (read off the curve) [5]: ~200 pM

B3: O35 (antibody, V domains shown)
VH: EVQLLESGGGLVQPGGSLRLSCAASGFTFSDYSMSWVRQAPGKGLEWVSAISSDGGSTYYADSVKGRFTISRDNSKNTLYLQMNSLRAEDTAVYYCARRWQTFDYWGQGTLVTVSS
VL: QSVLTQPPSASGTPGQRVTISCTGSSSNIGSNAVSWYQQLPGTAPKLLIYHDSHPPSGVPDRFSGSKSGTSASLAISGLRSEDEADYYCGAWDSSLSGYVFGGGTKLTVLG
- EC50 [1]: 1220 pM
- Bottom [2]: -0.361
- Top [2]: 97.3
- Kd [4]: 19900 pM
- koff [4]: 0.000203 s⁻¹
- EC50 (read off the curve) [3]: ~6 pM

B4: O31C (antibody, human IgG1, lambda, V domains shown)
VH: EVQLLESGGGLVQPGGSLRLSCAASGFTFSDYDMSWVRQAPGKGLEWVSSISPSSGSIYYADSVKGRFTISRDNSKNTLYLQMNSLRAEDTAVYYCAKDSIWCTNSRCYYDNAMDVWGQGTLVTVSS
VL: QSVLTQPPSASGTPGQRVTISCSGSSSNIGNNAVSWYQQLPGTAPKLLIYSDSNRPSGVPDRFSGSKSGTSASLAISGLRSEDEADYYCGSWDYSLSAYVFGGGTKLTVLG
- Kd [4]: 122000 pM
- koff [4]: 0.00238 s⁻¹
- EC50 (read off the curve) [6]: ~30 pM
- EC50 (read off the curve) [5]: ~80 pM

B5: O410 (antibody, human IgG1, lambda, V domains shown)
VH: EVQLLESGGGLVQPGGSLRLSCAASGFTFSDYYMSWVRQAPGKGLEWVSGIYSDGSRKYYADSVKGRFTISRDNSKNTLYLQMNSLRAEDTAVYYCARHWSRFDYWGQGTLVTVSS
VL: QSVLTQPPSASGTPGQRVTISCSGSSSNIGSNYVTWYQQLPRTAPKLLIYYDSNRPSGVPDRFSGSKSGTSASLAISGLRSEDEADYYCGAWDDSLSGYVFGGGTKLTVLG
- EC50 [1]: 252 pM
- Bottom [2]: 1.04
- Top [2]: 95.9
- Kd [4]: 1240 pM
- koff [4]: 4.17e-05 s⁻¹
- binding result [7]: no binding (tested: about 25000 pM)
- EC50 (read off the curve) [3]: ~30 pM
- EC50 (read off the curve) [5]: ~20 pM

B6: O212 (antibody, V domains shown)
VH: EVQLLESGGGLVQPGGSLRLSCAASGFTFSDYAMSWVRQAPGKGLEWVSWIYYDSGSKYYADSVKGRFTISRDNSKNTLYLQMNSLRAEDTAVYYCAKGPGPNGQLAFDYWGQGTLVTVSS
VL: QSVLTQPPSASGTPGQRVTISCTGSSSNIGSNSVSWYQQLPGTAPKLLIYANSHRPSGVPDRFSGSKSGTSASLAISGLRSEDEADYYCGAWDYSLSGYVFGGGTKLTVLG
notes: also called O212 antibody
- EC50 [1]: 2170 pM
- Bottom [2]: 5.53
- Top [2]: 99.4
- Kd [4]: 24400 pM
- koff [4]: 0.00167 s⁻¹
- kon [4]: 68300 M⁻¹ s⁻¹
- EC50 (read off the curve) [5]: ~20 pM

B7: O34 (antibody, V domains shown)
VH: EVQLLESGGGLVQPGGSLRLSCAASGFTFSDYYMSWVRQAPGKGLEWVSGISSSGGNKYYADSVKGRFTISRDNSKNTLYLQMNSLRAEDTAVYYCARHWKRFDYWGQGTLVTVSS
VL: QSVLTQPPSASGTPGQRVTISCTGPSSNIGNNDVSWYQQLPGTAPKLLIYANSNRPSGVSDRFSGSKSGTSASLAISGLRSEDEADYYCGTWDYSLSGYVLGGGTKLTVLG
- EC50 [1]: 182 pM
- Bottom [2]: 5.77
- Top [2]: 99.9
- Kd [4]: 2400 pM
- koff [4]: 5.63e-05 s⁻¹
- EC50 (read off the curve) [3]: ~5 pM
- EC50 (read off the curve) [5]: ~20 pM

B8: OX40L-Fc protein (ACROBiosystems, Cat #. OX0-H5255) (Fc fusion, UniProt P23510 51-183, looked up)
chain: QVSHRYPRIQSIKVQFTEYKKEKGFILTSQKEDEIMKVQNNSVIINCDGFYLISLKGYFSQEVNISLHYQKDEEPLFQLKKVRSVNSLMVASLTYKDKVYLNVTTDNTSLDDFHVNGGELILIHQNPGEFCVL
notes: Bought; not shown: Fc part of the bought fusion protein
- koff [8]: 0.00119 s⁻¹
